From patent publication US20220195057A1 (LANOVA MEDICINES, published 2022)
Numbering of substitutions follows the chain as printed. One block for each molecule: values may come before it.

Assays:
[1] = biological target: human chemokine (C-C motif) receptor 8 (CCR8) protein (human) (UniProt P51685); assay: flow cytometry, low-CCR8-expressing Jurkat cells
[2] = biological target: human chemokine (C-C motif) receptor 8 (CCR8) protein (human) (UniProt P51685); assay: flow cytometry, high-CCR8-expressing U2OS cells
[3] = biological target: T1, human chemokine (C-C motif) receptor 8 (CCR8) protein (human, UniProt P51685 1-355); assay: cell-based or functional assay
[4] = biological target: T1, human chemokine (C-C motif) receptor 8 …; assay: cell binding, CCR8-expressing U2OS cells, curve fit; set-up: LogEC50: unit not given here
[5] = biological target: T1, human chemokine (C-C motif) receptor 8 …; assay: cell binding, CCR8-expressing CHO-K1 cells, curve fit; set-up: LogEC50: unit not given here
[6] = biological target: T1, human chemokine (C-C motif) receptor 8 …; assay: as above; set-up: LogEC50: unit not given here; remark: listed apart in the source
[7] = biological target: T1, human chemokine (C-C motif) receptor 8 …; assay: cell binding, CCR8-expressing U2OS cells, curve fit; set-up: LogEC50: unit not given here; remark: listed apart in the source
[8] = biological target: T1, human chemokine (C-C motif) receptor 8 …; assay: flow cytometry, high-CCR8-expressing U2OS cells
From the text: The cells used were U2OS (U2OS/H_CCR8).

[9] = biological target: T1, human chemokine (C-C motif) receptor 8 …; assay: flow cytometry, low-CCR8-expressing Jurkat cells
From the text: The cells used were Jurkat engineering cells (Jurkat/H_CCR8).

[10] = biological target: T1, human chemokine (C-C motif) receptor 8 …; assay: flow cytometry, CCR8-expressing HEK293 cells
Method in brief: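 Cell binding was measured by flow cytometry on HEK293 cells overexpressing human CCR8, alongside parental HEK293 cells. Antibodies were titrated from 200 nM in 4-fold dilutions over 12 points and incubated with the cells at 4° C for 60 minutes. Cells were washed twice with FACS buffer, stained with Alexa Fluor 647 goat anti-human IgG at 4° C for 60 minutes, washed twice and analysed. The read-out is binding EC50.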

- Max (MFI) [1]: 134 MFI
- Max (MFI) [2]: 215 MFI
Molecule: isotype control (antibody)

- ADCC EC50 (CCR8-overexpressing CHO K1 cells) [3]: 0.0174 nM
B1: 88D2C6 (fused to human IgG1 constant regions, with ADCC-activating mutations in Fc) (antibody, V domains shown)
VH: EVQLVETGGGLVQPKGSLKLSCAASGFTFNPNAMNWVRQAPGKGLEWVARIRSKSNNYATYYADSVKDRFTISRDDSQSMLYLQMNNLKTEDTAMYYCVRGKDDGYRHYAMDYWGQGTSVTVSS
VL: DIVMTQAAPSVPVTPGESVSISCRSSKSLLHSNGNTYLYWFLQRPGQSPQLLIYRMSNLASGVPDRFSGSGSGTAFTLRISRVEAEDVGVYYCMQHLEYPFTFGAGTKLELK

- Bottom [4]: 1030
- LogEC50 [4]: -0.692
- Span [4]: 28600
- Top [4]: 29700
- Bottom [5]: 3630
- LogEC50 [5]: -0.655
- Span [5]: 30300
- Top [5]: 33900
B2: 88-xi (antibody, V domains shown)
VH: B1 VH
VL: B1 VL
notes: also called 88D2C6; chimeric 88D2C6

B3: LM-108-vc-MMAE (other)
VH: EVQLVESGGGLVQPGGSLKLSCAASGFTFNTYAMNWVRQASGKGLEWVARIRSKANNYATYYADSVKDRFTISRDDSKNTLYLQMNNLKTEDTAVYYCVRDRSRGEDYAMDYWGQGTLVTVSS
VL: DIVMTQSPLSLPVTPGEPASISCRSSKSLLHSNANTYLYWFLQKPGQSPQLLIYRMSNLASGVPDRFSGSGSGTAFTLKISRVEAEDVGVYYCMQHLEYPFTFGQGTKLEIK
modifications: vc-MMAE (monomethyl auristatin E) conjugated to the antibody; site and drug number not stated
- cytotoxicity IC50 (Cell-Titer-Glo viability, 96 hours) [3]: 0.528 nM

- Bottom [4]: 2760
- LogEC50 [4]: -0.724
- Span [4]: 25600
- Top [4]: 28300
- Bottom [5]: 2490
- LogEC50 [5]: -0.639
- Span [5]: 30300
- Top [5]: 32800
B4: 88-H2L2 (antibody, V domains shown)
VH: B1 VH with T7S, K15G, P41S, A49G, Q78K, S79N, M80T, L81A, M95V, S119T
VL: B3 VL with Q105G, L109V
notes: Humanized 88D2C6

- Bottom [6]: 2550
- LogEC50 [6]: -0.789
- Span [6]: 26800
- Top [6]: 29300
- Bottom [7]: 915
- LogEC50 [7]: -0.842
- Span [7]: 25300
- Top [7]: 26300
B5: 137-H2L2 (antibody, V domains shown)
VH: B3 VH with A49G, L81A
VL: B3 VL
notes: Humanized 137D1H10

- Bottom [6]: 3030
- LogEC50 [6]: -0.779
- Span [6]: 31900
- Top [6]: 34900
- Bottom [7]: 2170
- LogEC50 [7]: -0.605
- Span [7]: 31300
- Top [7]: 33400
B6: 137-xi (antibody, V domains shown)
VH: B3 VH with G15K, A23T, S41P, K78Q, N79R, T80I, T90A, V95M, L118S
VL: B1 VL
notes: also called 137D1H10; chimeric 137D1H10

- Bottom [4]: 2830
- LogEC50 [4]: -0.684
- Span [4]: 24600
- Top [4]: 27400
- Bottom [5]: 3940
- LogEC50 [5]: -0.686
- Span [5]: 28600
- Top [5]: 32500
B7: 88-H3L2 (antibody, V domains shown)
VH: B1 VH with T7S, K15G, P41S, Q78K, S79N, M80T, M95V, S119T
VL: B3 VL with Q105G, L109V
notes: Humanized 88D2C6

- Bottom [4]: 1620
- LogEC50 [4]: -0.629
- Span [4]: 25800
- Top [4]: 27400
- Bottom [5]: 3470
- LogEC50 [5]: -0.583
- Span [5]: 28700
- Top [5]: 32200
B8: 88-H3L3 (antibody, V domains shown)
VH: B1 VH with T7S, K15G, P41S, Q78K, S79N, M80T, M95V, S119T
VL: B3 VL with S7A, A19V, Q105G
notes: Humanized 88D2C6

- Bottom [4]: 1540
- LogEC50 [4]: -0.58
- Span [4]: 26100
- Top [4]: 27600
- Bottom [5]: 2140
- LogEC50 [5]: -0.519
- Span [5]: 29800
- Top [5]: 31900
B9: 88-H1L3 (antibody, V domains shown)
VH: EVQLVESGGGLVQPGGSLKLSCAASGFTFNPNAMNWVRQASGKGLEWVGRIRSKSNNYATYYADSVKDRFTISRDDSKNTAYLQMNSLKTEDTAVYYCTRGKDDGYRHYAMDYWGQGTTVTVSS
VL: B3 VL with S7A, A19V, Q105G
notes: Humanized 88D2C6

- Bottom [4]: 2110
- LogEC50 [4]: -0.678
- Span [4]: 26800
- Top [4]: 28900
- Bottom [5]: 2670
- LogEC50 [5]: -0.751
- Span [5]: 30100
- Top [5]: 32800
B10: 88-H1L2 (antibody, V domains shown)
VH: B9 VH
VL: B3 VL with Q105G, L109V
notes: Humanized 88D2C6

- Bottom [6]: 4260
- LogEC50 [6]: -0.684
- Span [6]: 28900
- Top [6]: 33200
- EC50 [8]: 0.25 nM
- Bottom [7]: 2060
- LogEC50 [7]: -0.69
- Span [7]: 30200
- Top [7]: 32300
- EC50 [9]: 0.212 nM
- EC50 [10]: 1.03 nM
B11: 137-H3L2 (LM-108) (antibody, V domains shown)
VH: B3 VH
VL: B3 VL
notes: Humanized 137D1H10; Detected with anti-human IgG
- ADCC EC50 with primary human PBMCs (cytotoxicity detection) [3]: 0.002 nM

- Bottom [6]: 2240
- LogEC50 [6]: -0.505
- Span [6]: 27900
- Top [6]: 30200
- Bottom [7]: 1320
- LogEC50 [7]: -0.484
- Span [7]: 25900
- Top [7]: 27300
B12: 137-H2L3 (antibody, V domains shown)
VH: B3 VH with A49G, L81A
VL: B3 VL with A19V
notes: Humanized 137D1H10

- Bottom [6]: 3820
- LogEC50 [6]: -0.754
- Span [6]: 29600
- Top [6]: 33400
- Bottom [7]: 2100
- LogEC50 [7]: -0.717
- Span [7]: 29800
- Top [7]: 31900
B13: 137-H3L3 (antibody, V domains shown)
VH: B3 VH
VL: B3 VL with A19V
notes: Humanized 137D1H10

- Bottom [4]: 1530
- LogEC50 [4]: -0.512
- Span [4]: 24200
- Top [4]: 25800
- Bottom [5]: 2280
- LogEC50 [5]: -0.546
- Span [5]: 29300
- Top [5]: 31600
B14: 88-H2L3 (antibody, V domains shown)
VH: B9 VH with S87N, T99V
VL: B3 VL with S7A, A19V, Q105G
notes: Humanized 88D2C6
